Laboratory results taken from patent US20110014213A1 (JURIDICAL FDN THE CHEMO SERO THERAP RES INS, published 2011).

T1: mouse α9 integrin (mouse, UniProt B8JK39 29-1036)
T1 chain: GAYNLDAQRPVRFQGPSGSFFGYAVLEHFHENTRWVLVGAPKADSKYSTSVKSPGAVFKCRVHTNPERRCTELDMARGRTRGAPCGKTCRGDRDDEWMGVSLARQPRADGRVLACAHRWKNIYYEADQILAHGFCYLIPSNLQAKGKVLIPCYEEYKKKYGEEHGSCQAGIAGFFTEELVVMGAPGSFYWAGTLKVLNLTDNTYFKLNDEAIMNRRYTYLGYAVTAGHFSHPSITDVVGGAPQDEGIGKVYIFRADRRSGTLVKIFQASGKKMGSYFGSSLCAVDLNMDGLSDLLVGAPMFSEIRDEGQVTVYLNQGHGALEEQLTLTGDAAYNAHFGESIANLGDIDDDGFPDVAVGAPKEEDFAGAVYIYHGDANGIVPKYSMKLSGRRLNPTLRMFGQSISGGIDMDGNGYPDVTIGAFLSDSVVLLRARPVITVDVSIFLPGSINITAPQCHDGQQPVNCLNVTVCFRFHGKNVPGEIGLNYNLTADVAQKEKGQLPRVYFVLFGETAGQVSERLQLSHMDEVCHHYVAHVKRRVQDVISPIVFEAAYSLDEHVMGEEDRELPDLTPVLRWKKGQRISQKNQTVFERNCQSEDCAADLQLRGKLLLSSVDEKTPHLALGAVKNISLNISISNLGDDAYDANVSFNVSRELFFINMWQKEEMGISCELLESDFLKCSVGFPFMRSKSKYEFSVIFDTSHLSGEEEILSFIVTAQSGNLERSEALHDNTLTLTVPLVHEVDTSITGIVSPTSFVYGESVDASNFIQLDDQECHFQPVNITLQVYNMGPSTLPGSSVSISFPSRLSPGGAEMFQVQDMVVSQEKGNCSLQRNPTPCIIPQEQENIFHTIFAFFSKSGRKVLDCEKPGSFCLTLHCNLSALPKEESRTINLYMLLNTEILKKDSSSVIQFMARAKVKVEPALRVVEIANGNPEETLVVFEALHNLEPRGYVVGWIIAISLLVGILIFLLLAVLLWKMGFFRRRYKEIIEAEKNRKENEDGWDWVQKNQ

T2: human α9 integrin (human, UniProt Q13797 30-1035)
T2 sequence: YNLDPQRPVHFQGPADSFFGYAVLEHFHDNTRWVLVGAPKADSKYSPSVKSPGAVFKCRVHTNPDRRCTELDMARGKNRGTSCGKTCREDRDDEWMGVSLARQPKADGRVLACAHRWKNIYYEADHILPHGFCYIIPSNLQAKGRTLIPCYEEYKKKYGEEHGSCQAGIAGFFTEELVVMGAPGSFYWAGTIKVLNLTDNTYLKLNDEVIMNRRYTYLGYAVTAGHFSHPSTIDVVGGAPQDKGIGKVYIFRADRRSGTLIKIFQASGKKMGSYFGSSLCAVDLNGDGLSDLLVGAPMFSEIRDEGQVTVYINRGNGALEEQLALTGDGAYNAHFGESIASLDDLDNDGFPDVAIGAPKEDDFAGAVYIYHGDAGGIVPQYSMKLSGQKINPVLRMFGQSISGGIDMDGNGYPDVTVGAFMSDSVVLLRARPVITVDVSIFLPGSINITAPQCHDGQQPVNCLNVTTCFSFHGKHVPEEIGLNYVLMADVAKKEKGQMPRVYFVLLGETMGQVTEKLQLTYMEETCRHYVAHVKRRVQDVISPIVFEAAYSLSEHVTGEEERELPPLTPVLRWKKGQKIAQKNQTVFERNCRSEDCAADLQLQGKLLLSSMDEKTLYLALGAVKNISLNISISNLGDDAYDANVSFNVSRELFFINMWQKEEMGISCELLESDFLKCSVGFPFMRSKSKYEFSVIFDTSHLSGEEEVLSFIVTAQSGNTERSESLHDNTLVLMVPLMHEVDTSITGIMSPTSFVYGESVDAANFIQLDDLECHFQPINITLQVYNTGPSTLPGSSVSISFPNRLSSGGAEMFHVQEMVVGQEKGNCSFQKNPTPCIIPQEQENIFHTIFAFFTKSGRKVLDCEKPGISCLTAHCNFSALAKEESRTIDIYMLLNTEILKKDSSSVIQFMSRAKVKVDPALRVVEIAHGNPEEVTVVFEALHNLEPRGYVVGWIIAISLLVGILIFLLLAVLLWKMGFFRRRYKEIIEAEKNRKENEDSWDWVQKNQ

B1: HA9-107 scFv-Fc (Fc fusion, not shown: a dimerising Fc or GST)
scFv: EVQLVESGGGVVRPGGSLRLSCAASGFAFGDYGMSWVRQAPGKGLEWVSGINWNGGSTGYADSVKGRFTTSRDNAKNSLYLQMNSLRAEDTALYYCARDENYDILTNEYYYGMDVWGQGTTVTVSSGGGGSGGGGSGGGGSQSVVTQPPSVSAAPGQKVTISCSGSSSNIGNNYVSWYQQLPGTAPKLLIYDNNKRPSGIPDRFSASKSGTSATLGITGLQTGDEADYYCGTWDSSLTVWAFGGGTKLTVLG
B2: MA9-418 scFv-Fc (Fc fusion, not shown: a dimerising Fc or GST)
scFv: EVQLVESGGGVVRPGGSLRLSCAASGFAFGDYGMSWVRQAPGKGLEWVSGINWNGGSTGYADSVKGRFTTSRDNAKNSLYLQMNSLRAEDTALYYCARDENYDILTGAYYYGMDVWGQGTTVTVSSGGGGSGGGGSGGGGSQSVVTQPPSVSAAPGQKVTISCSGSSSNIGNNYVSWYQQLPGTAPKLLIYDNNKRPSGIPDRFSASKSGTSATLGITGLQTGDEADYYCGTWDSSLTVWAFGGGTKLTVLG
B3: HA9-143 scFv-Fc (Fc fusion, not shown: a dimerising Fc or GST)
scFv: EVQLVESGGGVVRPGGSLRLSCAASGFAFGEYGMSWVRQAPGKGLEWVSGINWNGGSTGYADSVKGRFTTSRDNAKNSLYLQMNSLRAEDTALYYCARDENYDILTGHYYYGMDVWGQGTTVTVSSGGGGSGGGGSGGGGSQSVVTQPPSVSAAPGQKVTISCSGSSSNIGNNYVSWYQQLPGTAPKLLIYDNNKRPSGIPDRFSASKSGTSATLGITGLQTGDEADYYCGTWDSSLTVWAFGGGTKLTVLG
B4: HA9-212 scFv-Fc (Fc fusion, not shown: a dimerising Fc or GST)
scFv: EVQLVESGGGVVRPGGSLRLSCAASGFAFGEYGMSWVRQAPGKGLEWVSGINWNGGSTGYADSVQGRFTTSRDNAKNSLYLQMNSLRAEDTALYYCARDENYDILTGNYYYGMDVWGQGTTVTVSSGGGGSGGGGSGGGGSQSVVTQPPSVSAAPGQKVTISCSGSSSNIGNNYVSWYQQLPGTAPKLLIYDNNKRPSGIPDRFSASKSGTSATLGITGLQTGDEADYYCGTWDSSLTVWAFGGGTKLTVLG
B5: HA9-212 IgG (antibody, V domains shown)
VH: EVQLVESGGGVVRPGGSLRLSCAASGFAFGEYGMSWVRQAPGKGLEWVSGINWNGGSTGYADSVQGRFTTSRDNAKNSLYLQMNSLRAEDTALYYCARDENYDILTGNYYYGMDVWGQGTTVTVSS
VL: QSVVTQPPSVSAAPGQKVTISCSGSSSNIGNNYVSWYQQLPGTAPKLLIYDNNKRPSGIPDRFSASKSGTSATLGITGLQTGDEADYYCGTWDSSLTVWAFGGGTKLTVLG
notes: VH joined to human IgG1 constant region; VL joined to 'human x chain constant region'; Tested as culture supernatant of COS-7 / FreeStyle 293-F cells

What was measured:
mouse α9 integrin = target: T1, mouse α9 integrin; experiment: cell-based or functional assay
human α9 integrin [1] = target: T2, human α9 integrin; experiment: cell-based or functional assay
human α9 integrin [2] = target: T2, human α9 integrin; experiment: cell-based or functional assay; remark: listed apart in the source
human α9 integrin [3] = target: T2, human α9 integrin; experiment: Cell ELISA of IgG in culture supernatant, anti-human IgG(Fc) detection
Experimental: CHO/mα9 and CHO were seeded on a 96 well plate (costar) at 2×10⁴ cells/100 μL/well, and incubated overnight at 37° C., 5% CO₂. The medium was suctioned, and the cells were washed with PBS, and reacted with phage antibody diluted with 1% BSA/PBS. The detection was performed by using horse-radish peroxidase (HRP)-labeled anti-M13 antibody (Amersham) and TMB (SIGMA) in combination. The absorbance at wavelengths 450 nm and 650 nm was measured by a microplate reader (Molecular Devices).
SW480/mα9, SW480/hα9 and SW480 were used as antigens, 1% BSA/PBS containing 5% FBS was used as a dilution solution, an HRP-labeled anti-mouse IgG antibody (ZYMED) was used for detection, and the rest was performed under the same conditions as in Example 4.
The IgG expression amount in the culture supernatant was quantified by human IgG quantification ELISA, and the reactivity with human α9 and mouse α9 at each IgG concentration was analyzed by Cell ELISA. HRP-labeled anti-human IgG(Fc) antibody (American Qualex) was used for detection, and the rest was performed under the same conditions as in Example 11.

| Binder | IC50 of inhibition of α9-dependent cell adhesion (mouse α9 integrin) [µg/mL] | IC50 of inhibition of α9-dependent cell adhesion (human α9 integrin [1]) [µg/mL] | fold inhibitory activity against human α9-dependent cell adhesion, against MA9-413 (human α9 integrin [2]) [fold] | binding result (human α9 integrin [3]) |
| --- | --- | --- | --- | --- |
| B1 | 0.067 | > 10 | – | – |
| B2 | 0.96 | > 10 | – | – |
| B3 | 2.32 | 0.42 | – | – |
| B4 | 3.3 | 0.053 | ~1000 | – |
| B5 | – | – | – | binds |
